Experimental data as given in publication doi:10.1101/2024.04.24.590897 (bioRxiv, 2024).

Molecular target: Flag-LEDGF/p75 (UniProt O75475 1-530)
Assay: AlphaScreen or HTRF

binding result: binds
B1: GST-LEDGF/p52 (natural protein)
chain: not shown
